# The supplement of paper PMC5998384
# What was measured:
# HeLa Kyoto [1] = test: solubility change mitosis vs G1/S (difference of NP-40 vs SDS log2 ratios) (log2 ratio difference); higher = more soluble in mitosis
# HeLa Kyoto [2] = test: melting temperature (median over replicates), in situ; higher = more thermally stable
# HeLa Kyoto [3] = test: thermal stability score vs G1/S (z-score of summed log2 fold changes over temperatures); higher = more thermally stable than in G1/S
# HeLa Kyoto [4] = test: solubility in G1/S (NP-40 vs SDS abundance) (log2 ratio); higher = more soluble; conditions: cell cycle stage: G1/S
# [5] = cell cycle stage: early G1 (4.5 h after nocodazole release)
# 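For melting temperature (median over replicates), in situ in this document: HeLa Kyoto cells synchronized by double thymidine or nocodazole block, proteins quantified by TMT10plex mass spectrometry, three independent biological replicates.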
# 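For solubility change mitosis vs G1/S (difference of NP-40 vs SDS log2 ratios) in this document: synchronized HeLa Kyoto cells (double thymidine block for G1/S, nocodazole release for mitosis), protein amounts in NP-40 versus SDS lysates quantified by mass spectrometry, three biological replicates.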
# 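For solubility in G1/S (NP-40 vs SDS abundance) in this document: HeLa Kyoto cells arrested at G1/S by double thymidine block, proteins quantified by TMT10plex mass spectrometry in mild NP-40 versus SDS extracts, three biological replicates.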
# 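For thermal stability score vs G1/S (z-score of summed log2 fold changes over temperatures) in this document: synchronized HeLa Kyoto cells, proteins quantified by TMT10plex mass spectrometry, three biological replicates, mitosis taken 0.5 h after nocodazole release, G1/S directly after double thymidine block.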
Sequence,solubility change mitosis (log2) (HeLa Kyoto [1]),melting temperature (HeLa Kyoto [2]; cell cycle stage: G1/S) [°C],melting temperature (HeLa Kyoto [2]; cell cycle stage: mitosis) [°C],thermal stability score (HeLa Kyoto [3]; [5]),thermal stability score (HeLa Kyoto [3]; cell cycle stage: mitosis),solubility in G1/S (log2) (HeLa Kyoto [4])
MGTRLPLVLRQLRRPPQPPGPPRRLRVPCRASSGGGGGGGGGREGLLGQRRPQDGQARSSCSPGGRTPAARDSIVREVIQNSKEVLSLLQEKNPAFKPVLAIIQAGDDNLMQEINQNLAEEAGLNITHICLPPDSSEAEIIDEILKINEDTRVHGLALQISENLFSNKVLNALKPEKDVDGVTDINLGKLVRGDAHECFVSPVAKAVIELLEKSGVNLDGKKILVVGAHGSLEAALQCLFQRKGSMTMSIQWKTRQLQSKLHEADIVVLGSPKPEEIPLTWIQPGTTVLNCSHDFLSGKVGCGSPRIHFGGLIEEDDVILLAAALRIQNMVSSGRRWLREQQHRRWRLHCLKLQPLSPVPSDIEISRGQTPKAVDVLAKEIGLLADEIEIYGKSKAKVRLSVLERLKDQADGKYVLVAGITPTPLGEGKSTVTIGLVQALTAHLNVNSFACLRQPSQGPTFGVKGGAAGGGYAQVIPMEEFNLHLTGDIHAITAANNLLAAAIDTRILHENTQTDKALYNRLVPLVNGVREFSEIQLARLKKLGINKTDPSTLTEEEVSKFARLDIDPSTITWQRVLDTNDRFLRKITIGQGNTEKGHYRQAQFDIAVASEIMAVLALTDSLADMKARLGRMVVASDKSGQPVTADDLGVTGALTVLMKDAIKPNLMQTLEGTPVFVHAGPFANIAHGNSSVLADKIALKLVGEEGFVVTEAGFGADIGMEKFFNIKCRASGLVPNVVVLVATVRALKMHGGGPSVTAGVPLKKEYTEENIQLVADGCCNLQKQIQITQLFGVPVVVALNVFKTDTRAEIDLVCELAKRAGAFDAVPCYHWSVGGKGSVDLARAVREAASKRSRFQFLYDVQVPIVDKIRTIAQAVYGAKDIELSPEAQAKIDRYTQQGFGNLPICMAKTHLSLSHQPDKKGVPRDFILPISDVRASIGAGFIYPLVGTMSTMPGLPTRPCFYDIDLDTETEQVKGLF [MTHFD1L],-0.101,51.7,51.5,-0.3,0.0484,0.247
MGVPAFFRWLSRKYPSIIVNCVEEKPKECNGVKIPVDASKPNPNDVEFDNLYLDMNGIIHPCTHPEDKPAPKNEDEMMVAIFEYIDRLFSIVRPRRLLYMAIDGVAPRAKMNQQRSRRFRASKEGMEAAVEKQRVREEILAKGGFLPPEEIKERFDSNCITPGTEFMDNLAKCLRYYIADRLNNDPGWKNLTVILSDASAPGEGEHKIMDYIRRQRAQPNHDPNTHHCLCGADADLIMLGLATHEPNFTIIREEFKPNKPKPCGLCNQFGHEVKDCEGLPREKKGKHDELADSLPCAEGEFIFLRLNVLREYLERELTMASLPFTFDVERSIDDWVFMCFFVGNDFLPHLPSLEIRENAIDRLVNIYKNVVHKTGGYLTESGYVNLQRVQMIMLAVGEVEDSIFKKRKDDEDSFRRRQKEKRKRMKRDQPAFTPSGILTPHALGSRNSPGSQVASNPRQAAYEMRMQNNSSPSISPNTSFTSDGSPSPLGGIKRKAEDSDSEPEPEDNVRLWEAGWKQRYYKNKFDVDAADEKFRRKVVQSYVEGLCWVLRYYYQGCASWKWYYPFHYAPFASDFEGIADMPSDFEKGTKPFKPLEQLMGVFPAASGNFLPPSWRKLMSDPDSSIIDFYPEDFAIDLNGKKYAWQGVALLPFVDERRLRAALEEVYPDLTPEETRRNSLGGDVLFVGKHHPLHDFILELYQTGSTEPVEVPPELCHGIQGKFSLDEEAILPDQIVCSPVPMLRDLTQNTVVSINFKDPQFAEDYIFKAVMLPGARKPAAVLKPSDWEKSSNGRQWKPQLGFNRDRRPVHLDQAAFRTLGHVMPRGSGTGIYSNAAPPPVTYQGNLYRPLLRGQAQIPKLMSNMRPQDSWRGPPPLFQQQRFDRGVGAEPLLPWNRMLQTQNAAFQPNQYQMLAGPGGYPPRRDDRGGRQGYPREGRKYPLPPPSGRYNWN [XRN2],0.128,50.2,50.4,1.15,0.632,-0.126
MGVQGLWKLLECSGRQVSPEALEGKILAVDISIWLNQALKGVRDRHGNSIENPHLLTLFHRLCKLLFFRIRPIFVFDGDAPLLKKQTLVKRRQRKDLASSDSRKTTEKLLKTFLKRQAIKTAFRSKRDEALPSLTQVRRENDLYVLPPLQEEEKHSSEEEDEKEWQERMNQKQALQEEFFHNPQAIDIESEDFSSLPPEVKHEILTDMKEFTKRRRTLFEAMPEESDDFSQYQLKGLLKKNYLNQHIEHVQKEMNQQHSGHIRRQYEDEGGFLKEVESRRVVSEDTSHYILIKGIQAKTVAEVDSESLPSSSKMHGMSFDVKSSPCEKLKTEKEPDATPPSPRTLLAMQAALLGSSSEEELESENRRQARGRNAPAAVDEGSISPRTLSAIKRALDDDEDVKVCAGDDVQTGGPGAEEMRINSSTENSDEGLKVRDGKGIPFTATLASSSVNSAEEHVASTNEGREPTDSVPKEQMSLVHVGTEAFPISDESMIKDRKDRLPLESAVVRHSDAPGLPNGRELTPASPTCTNSVSKNETHAEVLEQQNELCPYESKFDSSLLSSDDETKCKPNSASEVIGPVSLQETSSIVSVPSEAVDNVENVVSFNAKEHENFLETIQEQQTTESAGQDLISIPKAVEPMEIDSEESESDGSFIEVQSVISDEELQAEFPETSKPPSEQGEEELVGTREGEAPAESESLLRDNSERDDVDGEPQEAEKDAEDSLHEWQDINLEELETLESNLLAQQNSLKAQKQQQERIAATVTGQMFLESQELLRLFGIPYIQAPMEAEAQCAILDLTDQTSGTITDDSDIWLFGARHVYRNFFNKNKFVEYYQYVDFHNQLGLDRNKLINLAYLLGSDYTEGIPTVGCVTAMEILNEFPGHGLEPLLKFSEWWHEAQKNPKIRPNPHDTKVKKKLRTLQLTPGFPNPAVAEAYLKPVVDDSKGSFLWGKPDLDKIREFCQRYFGWNRTKTDESLFPVLKQLDAQQTQLRIDSFFRLAQQEKEDAKRIKSQRLNRAVTCMLRKEKEAAASEIEAVSVAMEKEFELLDKAKGKTQKRGITNTLEESSSLKRKRLSDSKGKNTCGGFLGETCLSESSDGSSSEDAESSSLMNVQRRTAAKEPKTSASDSQNSVKEAPVKNGGATTSSSSDSDDDGGKEKMVLVTARSVFGKKRRKLRRARGRKRKT [ERCC5],-0.0796,50.7,51.4,0.19,1.18,-0.112
MGVTCVSQMPVAEGKSVQQTVELLTRKLEMLGAEKQGTFCVDCETYHTAASTLGSQGQTGKLMYVMHNSEYPLSCFALFENGPCLIADTNFDVLMVKLKGFFQSAKASKIETRGTRYQYCDFLVKVGTVTMGPSARGISVEVEYGPCVVASDCWSLLLEFLQSFLGSHTPGAPAVFGNRHDAVYGPADTMVQYMELFNKIRKQQQVPVAGIR [MED20],-0.0509,51.7,52.7,-0.587,-0.494,0.339
MGWVGGRRRDSASPPGRSRSAADDINPAPANMEGGGGSVAVAGLGARGSGAAAATVRELLQDGCYSDFLNEDFDVKTYTSQSIHQAVIAEQLAKLAQGISQLDRELHLQVVARHEDLLAQATGIESLEGVLQMMQTRIGALQGAVDRIKAKIVEPYNKIVARTAQLARLQVACDLLRRIIRILNLSKRLQGQLQGGSREITKAAQSLNELDYLSQGIDLSGIEVIENDLLFIARARLEVENQAKRLLEQGLETQNPTQVGTALQVFYNLGTLKDTITSVVDGYCATLEENINSALDIKVLTQPSQSAVRGGPGRSTMPTPGNTAALRASFWTNMEKLMDHIYAVCGQVQHLQKVLAKKRDPVSHICFIEEIVKDGQPEIFYTFWNSVTQALSSQFHMATNSSMFLKQAFEGEYPKLLRLYNDLWKRLQQYSQHIQGNFNASGTTDLYVDLQHMEDDAQDIFIPKKPDYDPEKALKDSLQPYEAAYLSKSLSRLFDPINLVFPPGGRNPPSSDELDGIIKTIASELNVAAVDTNLTLAVSKNVAKTIQLYSVKSEQLLSTQGDASQVIGPLTEGQRRNVAVVNSLYKLHQSVTKVVSSQSSFPLAAEQTIISALKAIHALMENAVQPLLTSVGDAIEAIIITMHQEDFSGSLSSSGKPDVPCSLYMKELQGFIARVMSDYFKHFECLDFVFDNTEAIAQRAVELFIRHASLIRPLGEGGKMRLAADFAQMELAVGPFCRRVSDLGKSYRMLRSFRPLLFQASEHVASSPALGDVIPFSIIIQFLFTRAPAELKSPFQRAEWSHTRFSQWLDDHPSEKDRLLLIRGALEAYVQSVRSREGKEFAPVYPIMVQLLQKAMSALQ [COG5],-0.0443,48.3,48,0.309,0.873,0.00411
MGYFRCARAGSFGRRRKMEPSTAARAWALFWLLLPLLGAVCASGPRTLVLLDNLNVRETHSLFFRSLKDRGFELTFKTADDPSLSLIKYGEFLYDNLIIFSPSVEDFGGNINVETISAFIDGGGSVLVAASSDIGDPLRELGSECGIEFDEEKTAVIDHHNYDISDLGQHTLIVADTENLLKAPTIVGKSSLNPILFRGVGMVADPDNPLVLDILTGSSTSYSFFPDKPITQYPHAVGKNTLLIAGLQARNNARVIFSGSLDFFSDSFFNSAVQKAAPGSQRYSQTGNYELAVALSRWVFKEEGVLRVGPVSHHRVGETAPPNAYTVTDLVEYSIVIQQLSNGKWVPFDGDDIQLEFVRIDPFVRTFLKKKGGKYSVQFKLPDVYGVFQFKVDYNRLGYTHLYSSTQVSVRPLQHTQYERFIPSAYPYYASAFSMMLGLFIFSIVFLHMKEKEKSD [DDOST],-0.163,54.1,54.2,2.5,2.41,-0.0357
MHDAFEPVPILEKLPLQIDCLAAWEEWLLVGTKQGHLLLYRIRKDVVPADVASPESGSCNRFEVTLEKSNKNFSKKIQQIHVVSQFKILVSLLENNIYVHDLLTFQQITTVSKAKGASLFTCDLQHTETGEEVLRMCVAVKKKLQLYFWKDREFHELQGDFSVPDVPKSMAWCENSICVGFKRDYYLIRVDGKGSIKELFPTGKQLEPLVAPLADGKVAVGQDDLTVVLNEEGICTQKCALNWTDIPVAMEHQPPYIIAVLPRYVEIRTFEPRLLVQSIELQRPRFITSGGSNIIYVASNHFVWRLIPVPMATQIQQLLQDKQFELALQLAEMKDDSDSEKQQQIHHIKNLYAFNLFCQKRFDESMQVFAKLGTDPTHVMGLYPDLLPTDYRKQLQYPNPLPVLSGAELEKAHLALIDYLTQKRSQLVKKLNDSDHQSSTSPLMEGTPTIKSKKKLLQIIDTTLLKCYLHTNVALVAPLLRLENNHCHIEESEHVLKKAHKYSELIILYEKKGLHEKALQVLVDQSKKANSPLKGHERTVQYLQHLGTENLHLIFSYSVWVLRDFPEDGLKIFTEDLPEVESLPRDRVLGFLIENFKGLAIPYLEHIIHVWEETGSRFHNCLIQLYCEKVQGLMKEYLLSFPAGKTPVPAGEEEGELGEYRQKLLMFLEISSYYDPGRLICDFPFDGLLEERALLLGRMGKHEQALFIYVHILKDTRMAEEYCHKHYDRNKDGNKDVYLSLLRMYLSPPSIHCLGPIKLELLEPKANLQAALQVLELHHSKLDTTKALNLLPANTQINDIRIFLEKVLEENAQKKRFNQVLKNLLHAEFLRVQEERILHQQVKCIITEEKVCMVCKKKIGNSAFARYPNGVVVHYFCSKEVNPADT [VPS39],-0.261,50.8,50.1,0.627,0.376,-0.174
MHPAVFLSLPDLRCSLLLLVTWVFTPVTTEITSLDTENIDEILNNADVALVNFYADWCRFSQMLHPIFEEASDVIKEEFPNENQVVFARVDCDQHSDIAQRYRISKYPTLKLFRNGMMMKREYRGQRSVKALADYIRQQKSDPIQEIRDLAEITTLDRSKRNIIGYFEQKDSDNYRVFERVANILHDDCAFLSAFGDVSKPERYSGDNIIYKPPGHSAPDMVYLGAMTNFDVTYNWIQDKCVPLVREITFENGEELTEEGLPFLILFHMKEDTESLEIFQNEVARQLISEKGTINFLHADCDKFRHPLLHIQKTPADCPVIAIDSFRHMYVFGDFKDVLIPGKLKQFVFDLHSGKLHREFHHGPDPTDTAPGEQAQDVASSPPESSFQKLAPSEYRYTLLRDRDEL [ERP44],-0.0724,53.9,54.1,5.67,6.88,0.277
